Laboratory results as given in patent US20030175243A1.

Target: natural cellular receptor for adenoviruses, on human 293 cells
Assay: cell-based or functional assay

| Substance | propagation of the corresponding virus in 293 cells (multiplication factor) (multiplication factor) | multiplication factor of the virus in 293 cells (7 days post-infection) (multiplication factor) |
| --- | --- | --- |
| Ad5 fiber CD5 to CD3 (replacement of the CD loop of an Ad5 with its equivalent from an Ad3) | < 1 | – |
| Ad5 fiber with the mutation A455F (from UniProt P11818 1-581) | < 1 | – |
| Ad5 fiber with the mutation G443D (from UniProt P11818 1-581) | < 1 | – |
| Ad5 fiber with the mutation I459A (from UniProt P11818 1-581) | < 1 | – |
| Ad5 fiber with the mutation L457K (from UniProt P11818 1-581) | < 1 | – |
| Ad5 fiber ΔCD+D (deletion of the CD loop and of the D sheet) (from UniProt P11818 1-581) | < 1 | – |
| Ad5 fiber ΔD (deletion of the D sheet of the Ad5 fiber) (from UniProt P11818 1-581) | < 1 | – |
| GRP fiber (Ad5 fiber with a 12-residue spacer arm and the GRP peptide at its C-terminal end), carried by AdTG4628 (from UniProt P11818 1-581) | – | 1000 |
